Source: US20100260668A1 (published 2010)

B1: DVD489 (bispecific antibody, human IgG1, kappa, L234A L235A)
heavy: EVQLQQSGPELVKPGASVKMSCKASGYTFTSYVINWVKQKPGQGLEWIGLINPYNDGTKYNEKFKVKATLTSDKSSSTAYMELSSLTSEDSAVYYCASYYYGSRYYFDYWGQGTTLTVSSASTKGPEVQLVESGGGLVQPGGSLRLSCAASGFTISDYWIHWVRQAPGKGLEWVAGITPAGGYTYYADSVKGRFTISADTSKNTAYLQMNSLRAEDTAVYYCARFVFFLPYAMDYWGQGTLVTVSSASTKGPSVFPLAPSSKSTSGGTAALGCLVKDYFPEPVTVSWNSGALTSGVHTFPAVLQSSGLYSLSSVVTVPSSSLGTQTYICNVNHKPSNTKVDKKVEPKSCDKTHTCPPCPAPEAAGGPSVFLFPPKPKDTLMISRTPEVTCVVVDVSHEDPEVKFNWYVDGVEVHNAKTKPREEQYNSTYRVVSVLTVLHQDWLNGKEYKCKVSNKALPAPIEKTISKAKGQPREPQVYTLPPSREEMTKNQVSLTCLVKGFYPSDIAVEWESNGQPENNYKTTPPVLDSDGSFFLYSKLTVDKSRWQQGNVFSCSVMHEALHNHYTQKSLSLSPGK
light: DIQMTQSSSYLSVSLGGRVTITCKASDHINNWLAWYQQKPGNAPRLLISGATSLETGVPSRFSGSGSGKDYTLSITSLQTEDVATYYCQQYWSIPLTFGAGTKLELKRTVAAPDIQMTQSPSSLSASVGDRVTITCRASQDVSTAVAWYQQKPGKAPKLLIYSASFLYSGVPSRFSGSGSGTDFTLTISSLQPEDFATYYCQQSYTTPPTFGQGTKVEIKRTVAAPSVFIFPPSDEQLKSGTASVVCLLNNFYPREAKVQWKVDNALQSGNSQESVTEQDSKDSTYSLSSTLTLSKADYEKHKVYACEVTHQGLSSPVTKSFNRGEC
notes: HC linker short, LC linker short; also called DVD-Ig DVD489
B2: DVD501 (bispecific antibody, human IgG1, kappa)
heavy: not shown
light: B1 light
notes: HC linker long, LC linker short; also called DVD-Ig DVD501
B3: DVD520 (bispecific antibody, human IgG1, kappa, lambda)
heavy: not shown
light: DIQMTQSPSSLSASVGDRVTITCRASQDVSTAVAWYQQKPGKAPKLLIYSASFLYSGVPSRFSGSGSGTDFTLTISSLQPEDFATYYCQQSYTTPPTFGQGTKVEIKRTVAAPSVFIFPPQAVVTQESALTTSPGETVTLTCRSSTGAVTTSNYANWVQEKPDHLFTGLIGGTNNRAPGVPARFSGSLIGDKAALTITGAQTEDEAIYFCALWYSNHWVFGGGTKLTVLGQPKAAPSVTLFPPSSEELQANKATLVCLISDFYPGAVTVAWKADSSPVKAGVETTTPSKQSNNKYAASSYLSLTPEQWKSHRSYSCQVTHEGSTVEKTVAPTECS
notes: HC linker long, LC linker long; also called DVD-Ig DVD520
B4: DVD514 (bispecific antibody, human IgG1, lambda)
heavy: not shown
light: DIQMTQSPSSLSASVGDRVTITCRASQDVSTAVAWYQQKPGKAPKLLIYSASFLYSGVPSRFSGSGSGTDFTLTISSLQPEDFATYYCQQSYTTPPTFGQGTKVEIKRTVAAPQAVVTQESALTTSPGETVTLTCRSSTGAVTTSNYANWVQEKPDHLFTGLIGGTNNRAPGVPARFSGSLIGDKAALTITGAQTEDEAIYFCALWYSNHWVFGGGTKLTVLGQPKAAPSVTLFPPSSEELQANKATLVCLISDFYPGAVTVAWKADSSPVKAGVETTTPSKQSNNKYAASSYLSLTPEQWKSHRSYSCQVTHEGSTVEKTVAPTECS
notes: HC linker short, LC linker short; also called DVD-Ig DVD514
B5: DVD531 (bispecific antibody, human IgG1, kappa, lambda)
heavy: not shown
light: QAVVTQESALTTSPGETVTLTCRSSTGAVTTSNYANWVQEKPDHLFTGLIGGTNNRAPGVPARFSGSLIGDKAALTITGAQTEDEAIYFCALWYSNHWVFGGGTKLTVLGQPKAAPSVTLFPPDIQMTQSPSSLSASVGDRVTITCRASQDVSTAVAWYQQKPGKAPKLLIYSASFLYSGVPSRFSGSGSGTDFTLTISSLQPEDFATYYCQQSYTTPPTFGQGTKVEIKRTVAAPSVFIFPPSDEQLKSGTASVVCLLNNFYPREAKVQWKVDNALQSGNSQESVTEQDSKDSTYSLSSTLTLSKADYEKHKVYACEVTHQGLSSPVTKSFNRGEC
notes: HC linker short, LC linker long; also called DVD-Ig DVD531
B6: DVD472 (bispecific antibody, human IgG1, kappa)
heavy: not shown
light: DIQMTQSPSSLSASVGDRVTITCRASQDVSTAVAWYQQKPGKAPKLLIYSASFLYSGVPSRFSGSGSGTDFTLTISSLQPEDFATYYCQQSYTTPPTFGQGTKVEIKRTVAAPSVFIFPPDIQMTQSPSSLSASVGDRVTITCRASQDVSTAVAWYQQKPGKAPKLLIYSASFLYSGVPSRFSGSGSGTDFTLTISSLQPEDFATTYYCQQSYTGTVTFGQGTKVEIKRTVAAPSVFIFPPSDEQLKSGTASVVCLLNNFYPREAKVQWKVDNALQSGNSQESVTEQDSKDSTYSLSSTLTLSKADYEKHKVYACEVTHQGLSSPVTKSFNRGEC
notes: HC linker long, LC linker long; also called DVD-Ig DVD472
B7: DVD484 (bispecific antibody, human IgG1, kappa)
heavy: not shown
light: B6 light
notes: HC linker short, LC linker long; also called DVD-Ig DVD484
B8: DVD444 (bispecific antibody, human IgG1, kappa)
heavy: not shown
light: DIQMTQSPSSLSASVGDRVTITCRASQDVSTAVAWYQQKPGKAPKLLIYSASFLYSGVPSRFSGSGSGTDFTLTISSLQPEDFATYYCQQSYTTPPTFGQGTKVEIKRTVAAPDIVMTQSPDSLAVSLGERATISCRASESVDNYGISFMKWFQQKPGQPPKLLIYAASNQGSGVPDRFSGSGSGTDFTLTISSLQAEDVAVYYCQQSKEVPWTFGGGTKVEIKRTVAAPSVFIFPPSDEQLKSGTASVVCLLNNFYPREAKVQWKVDNALQSGNSQESVTEQDSKDSTYSLSSTLTLSKADYEKHKVYACEVTHQGLSSPVTKSFNRGEC
notes: HC linker short, LC linker short; also called DVD-Ig DVD444
B9: DVD456 (bispecific antibody, human IgG1, kappa)
heavy: not shown
light: B8 light
notes: HC linker long, LC linker short; also called DVD-Ig DVD456
B10: DVD495 (bispecific antibody, human IgG1, kappa)
heavy: not shown
light: DIQMTQSSSYLSVSLGGRVTITCKASDHINNWLAWYQQKPGNAPRLLISGATSLETGVPSRFSGSGSGKDYTLSITSLQTEDVATYYCQQYWSIPLTFGAGTKLELKRTVAAPSVFIFPPDIQMTQSPSSLSASVGDRVTITCRASQDVSTAVAWYQQKPGKAPKLLIYSASFLYSGVPSRFSGSGSGTDFTLTISSLQPEDFATYYCQQSYTTPPTFGQGTKVEIKRTVAAPSVFIFPPSDEQLKSGTASVVCLLNNFYPREAKVQWKVDNALQSGNSQESVTEQDSKDSTYSLSSTLTLSKADYEKHKVYACEVTHQGLSSPVTKSFNRGEC
notes: HC linker long, LC linker long; also called DVD-Ig DVD495
B11: DVD507 (bispecific antibody, human IgG1, kappa, L234A L235A)
heavy: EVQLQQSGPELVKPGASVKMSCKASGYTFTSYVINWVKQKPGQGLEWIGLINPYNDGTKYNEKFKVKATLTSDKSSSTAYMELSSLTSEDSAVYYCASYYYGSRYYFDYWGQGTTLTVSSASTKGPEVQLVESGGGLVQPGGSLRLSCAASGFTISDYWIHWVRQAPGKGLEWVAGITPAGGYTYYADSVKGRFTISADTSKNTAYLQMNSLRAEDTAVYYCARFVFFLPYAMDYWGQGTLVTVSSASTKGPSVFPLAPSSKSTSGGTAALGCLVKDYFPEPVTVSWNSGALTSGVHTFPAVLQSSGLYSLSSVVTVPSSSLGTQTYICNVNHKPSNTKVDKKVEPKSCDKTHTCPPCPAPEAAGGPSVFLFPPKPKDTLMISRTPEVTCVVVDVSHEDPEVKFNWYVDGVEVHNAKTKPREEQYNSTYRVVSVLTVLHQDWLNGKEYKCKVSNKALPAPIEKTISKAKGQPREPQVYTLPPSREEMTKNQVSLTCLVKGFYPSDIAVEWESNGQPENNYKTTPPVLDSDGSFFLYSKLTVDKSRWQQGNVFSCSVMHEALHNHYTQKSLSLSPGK
light: B10 light
notes: HC linker short, LC linker long; also called DVD-Ig DVD507
B12: DVD466 (bispecific antibody, human IgG1, kappa)
heavy: not shown
light: DIQMTQSPSSLSASVGDRVTITCRASQDVSTAVAWYQQKPGKAPKLLIYSASFLYSGVPSRFSGSGSGTDFTLTISSLQPEDFATYYCQQSYTTPPTFGQGTKVEIKRTVAAPDIQMTQSPSSLSASVGDRVTITCRASQDVSTAVAWYQQKPGKAPKLLIYSASFLYSGVPSRFSGSGSGTDFTLTISSLQPEDFATTYYCQQSYTGTVTFGQGTKVEIKRTVAAPSVFIFPPSDEQLKSGTASVVCLLNNFYPREAKVQWKVDNALQSGNSQESVTEQDSKDSTYSLSSTLTLSKADYEKHKVYACEVTHQGLSSPVTKSFNRGEC
notes: HC linker short, LC linker short; also called DVD-Ig DVD466
B13: DVD478 (bispecific antibody, human IgG1, kappa)
heavy: not shown
light: B12 light
notes: HC linker long, LC linker short; also called DVD-Ig DVD478
B14: DVD450 (bispecific antibody, human IgG1, kappa)
heavy: not shown
light: DIQMTQSPSSLSASVGDRVTITCRASQDVSTAVAWYQQKPGKAPKLLIYSASFLYSGVPSRFSGSGSGTDFTLTISSLQPEDFATYYCQQSYTTPPTFGQGTKVEIKRTVAAPSVFIFPPDIVMTQSPDSLAVSLGERATISCRASESVDNYGISFMKWFQQKPGQPPKLLIYAASNQGSGVPDRFSGSGSGTDFTLTISSLQAEDVAVYYCQQSKEVPWTFGGGTKVEIKRTVAAPSVFIFPPSDEQLKSGTASVVCLLNNFYPREAKVQWKVDNALQSGNSQESVTEQDSKDSTYSLSSTLTLSKADYEKHKVYACEVTHQGLSSPVTKSFNRGEC
notes: HC linker long, LC linker long; also called DVD-Ig DVD450
B15: DVD462 (bispecific antibody, human IgG1, kappa)
heavy: not shown
light: B14 light
notes: HC linker short, LC linker long; also called DVD-Ig DVD462

molecular target: T1, DLL4 ECD His tag (UniProt Q9NR61 27-529, limits assumed); test: SPR (Biacore), DVD-Ig captured, DLL4 as analyte
T1 construct: extracellular domain; also called DLL ECD His tag

Kd [nM] | koff [s⁻¹] | kon [M⁻¹ s⁻¹] | Binder
0.283 | 8.38e-05 | 296000 | B1
0.302 | 8.14e-05 | 270000 | B2
3.3 | 0.000408 | 124000 | B3
3.48 | 0.000432 | 124000 | B4
3.47 | 0.000858 | 248000 | B5
0.881 | 8.64e-05 | 98000 | B6
2.96 | 0.000295 | 99700 | B7
2.37 | 0.00034 | 143000 | B8
1.66 | 0.000174 | 104000 | B9
0.263 | 7.91e-05 | 301000 | B10
0.265 | 7.16e-05 | 270000 | B11
1.25 | 0.000139 | 111000 | B12
2.22 | 0.000167 | 75200 | B13
7.41 | 0.000251 | 33800 | B14
2.98 | 0.00025 | 83900 | B15
